Data from paper PMC6391106 (2019).
Values belong to the binder of their own block, whether it stands above or below them.

Key:
murine C3b Asn1115 = murine C3b Asn1115 (mouse, UniProt P01027 749-1663; P01027 749-1663, D1115N); test: SPR
[1] = target: T1, recombinant human WT C3(H2O) (human, UniProt P01024 23-1663); test: SPR; methylamine-treated C3
[2] = target: recombinant human C3(H2O) Asn1115 (human, UniProt P01024 23-1663, D1115N); test: SPR; methylamine-treated C3
[3] = target: T1, recombinant human WT C3(H2O); test: SPR

T1 sequence (P01024 23-1663): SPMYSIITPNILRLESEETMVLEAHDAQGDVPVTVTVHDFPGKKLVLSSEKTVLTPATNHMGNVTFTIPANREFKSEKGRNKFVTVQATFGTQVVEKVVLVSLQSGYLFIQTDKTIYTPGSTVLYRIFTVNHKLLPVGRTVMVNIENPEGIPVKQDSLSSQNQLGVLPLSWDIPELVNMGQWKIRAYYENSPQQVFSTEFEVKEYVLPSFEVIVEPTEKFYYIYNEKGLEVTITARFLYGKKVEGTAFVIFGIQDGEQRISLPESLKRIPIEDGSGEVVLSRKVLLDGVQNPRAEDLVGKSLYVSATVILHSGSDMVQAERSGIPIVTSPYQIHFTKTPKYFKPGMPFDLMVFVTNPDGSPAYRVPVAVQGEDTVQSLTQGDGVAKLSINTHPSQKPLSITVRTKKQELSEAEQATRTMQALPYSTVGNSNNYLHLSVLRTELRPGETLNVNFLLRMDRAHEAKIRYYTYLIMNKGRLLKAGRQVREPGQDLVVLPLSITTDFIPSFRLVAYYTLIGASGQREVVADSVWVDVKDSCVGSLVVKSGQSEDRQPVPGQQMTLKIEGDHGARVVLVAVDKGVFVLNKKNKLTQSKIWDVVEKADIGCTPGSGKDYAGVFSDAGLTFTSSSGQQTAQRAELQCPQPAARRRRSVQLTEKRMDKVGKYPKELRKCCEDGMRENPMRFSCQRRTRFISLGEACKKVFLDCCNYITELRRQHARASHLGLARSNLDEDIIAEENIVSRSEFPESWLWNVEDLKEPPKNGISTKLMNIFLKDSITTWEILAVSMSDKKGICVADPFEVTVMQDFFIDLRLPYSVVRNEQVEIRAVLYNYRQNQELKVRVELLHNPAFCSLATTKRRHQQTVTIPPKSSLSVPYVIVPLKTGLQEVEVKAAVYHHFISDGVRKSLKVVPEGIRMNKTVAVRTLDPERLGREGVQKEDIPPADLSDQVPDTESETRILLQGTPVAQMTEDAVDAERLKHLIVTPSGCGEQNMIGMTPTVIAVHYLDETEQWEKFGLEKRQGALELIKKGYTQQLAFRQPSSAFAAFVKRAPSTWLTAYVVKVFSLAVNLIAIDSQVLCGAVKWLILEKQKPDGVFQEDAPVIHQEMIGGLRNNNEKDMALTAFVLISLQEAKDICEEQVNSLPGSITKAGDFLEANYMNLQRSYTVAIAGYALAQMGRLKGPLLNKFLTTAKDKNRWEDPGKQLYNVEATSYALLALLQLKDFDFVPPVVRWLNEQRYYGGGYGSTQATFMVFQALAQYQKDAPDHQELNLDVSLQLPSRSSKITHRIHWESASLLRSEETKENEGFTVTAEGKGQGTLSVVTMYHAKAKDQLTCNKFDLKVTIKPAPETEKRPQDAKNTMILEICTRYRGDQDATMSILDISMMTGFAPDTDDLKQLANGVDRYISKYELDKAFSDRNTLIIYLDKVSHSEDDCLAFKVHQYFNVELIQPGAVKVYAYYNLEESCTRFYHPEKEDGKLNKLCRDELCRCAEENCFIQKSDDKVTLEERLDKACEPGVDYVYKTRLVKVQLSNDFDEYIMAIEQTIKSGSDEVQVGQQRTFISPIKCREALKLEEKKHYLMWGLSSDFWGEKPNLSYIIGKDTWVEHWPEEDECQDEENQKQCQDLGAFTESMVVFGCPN
Sequence of recombinant human C3(H2O) Asn1115 (P01024 23-1663 D1115N): as the sequence (P01024 23-1663) above, with D1093N counted along it
Sequence of murine C3b Asn1115 (P01027 25-666, chain 1 of 2): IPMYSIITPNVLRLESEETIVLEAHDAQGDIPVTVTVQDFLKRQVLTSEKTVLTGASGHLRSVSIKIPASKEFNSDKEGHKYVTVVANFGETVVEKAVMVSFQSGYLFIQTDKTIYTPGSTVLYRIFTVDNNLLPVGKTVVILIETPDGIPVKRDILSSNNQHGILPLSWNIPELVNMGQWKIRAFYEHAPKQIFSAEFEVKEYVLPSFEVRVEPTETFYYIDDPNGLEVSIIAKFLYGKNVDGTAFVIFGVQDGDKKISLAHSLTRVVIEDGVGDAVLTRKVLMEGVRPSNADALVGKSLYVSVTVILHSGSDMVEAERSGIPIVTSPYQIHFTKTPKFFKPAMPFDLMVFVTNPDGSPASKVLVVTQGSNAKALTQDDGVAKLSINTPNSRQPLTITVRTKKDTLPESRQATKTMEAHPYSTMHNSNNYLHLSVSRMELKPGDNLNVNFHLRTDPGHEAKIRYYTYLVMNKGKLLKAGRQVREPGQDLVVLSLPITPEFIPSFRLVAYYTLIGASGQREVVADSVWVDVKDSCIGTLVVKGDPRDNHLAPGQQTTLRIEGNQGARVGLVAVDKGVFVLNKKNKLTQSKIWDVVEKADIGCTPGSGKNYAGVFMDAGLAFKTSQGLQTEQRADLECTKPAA
Sequence of murine C3b Asn1115 (P01027 749-1663 D1115N, chain 2 of 2): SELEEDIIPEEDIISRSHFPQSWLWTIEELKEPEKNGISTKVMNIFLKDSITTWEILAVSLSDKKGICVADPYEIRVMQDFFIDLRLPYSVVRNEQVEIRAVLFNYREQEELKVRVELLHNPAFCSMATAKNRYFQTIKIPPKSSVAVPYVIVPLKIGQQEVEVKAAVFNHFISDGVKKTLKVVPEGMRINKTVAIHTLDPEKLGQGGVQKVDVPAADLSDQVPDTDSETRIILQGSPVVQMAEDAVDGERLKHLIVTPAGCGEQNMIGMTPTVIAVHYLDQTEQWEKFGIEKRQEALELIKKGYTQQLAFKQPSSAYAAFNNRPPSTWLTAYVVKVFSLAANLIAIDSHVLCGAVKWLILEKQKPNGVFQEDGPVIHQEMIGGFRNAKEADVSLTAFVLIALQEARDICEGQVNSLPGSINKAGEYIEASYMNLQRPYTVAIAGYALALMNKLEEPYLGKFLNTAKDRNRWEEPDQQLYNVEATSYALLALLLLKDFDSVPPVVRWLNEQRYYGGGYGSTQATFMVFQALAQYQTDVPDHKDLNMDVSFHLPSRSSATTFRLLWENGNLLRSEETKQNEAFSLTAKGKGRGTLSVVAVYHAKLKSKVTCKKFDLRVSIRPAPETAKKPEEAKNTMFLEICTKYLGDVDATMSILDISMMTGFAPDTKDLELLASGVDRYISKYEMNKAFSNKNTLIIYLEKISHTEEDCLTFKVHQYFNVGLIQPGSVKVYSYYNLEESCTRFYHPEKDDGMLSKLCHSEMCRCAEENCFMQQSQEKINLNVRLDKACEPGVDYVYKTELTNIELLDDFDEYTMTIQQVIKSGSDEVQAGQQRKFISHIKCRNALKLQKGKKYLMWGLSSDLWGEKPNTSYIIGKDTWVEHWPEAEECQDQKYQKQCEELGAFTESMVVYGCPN

Kd (murine C3b Asn1115): > 17.4 µM
B1: recombinant human FH SCRs 19–20 (domain or fragment)
chain: GKCGPPPPIDNGDITSFPLSVYAPASSVEYQCQNLYQLEGNKRITCRNGQWSEPPKCLHPCVISREIMENYNIALRWTAKQKLYSRTGESVEFVCKRGYRLSSRSHTLRTTCWDGKLEYPTCAK
modifications: C3b made from plasma-purified C3 by factor B/factor D cleavage (C3a released); beta and alpha' chains disulfide-linked; thioester (Cys1010-Gln1013) hydrolysed; N-glycosylated; amine-coupled to CM5 chip

Kd [1]: 3.79 µM
Kd [2]: 6.37 µM
B2: human FH (natural protein)
chain: EDCNELPPRRNTEILTGSWSDQTYPEGTQAIYKCRPGYRSLGNVIMVCRKGEWVALNPLRKCQKRPCGHPGDTPFGTFTLTGGNVFEYGVKAVYTCNEGYQLLGEINYRECDTDGWTNDIPICEVVKCLPVTAPENGKIVSSAMEPDREYHFGQAVRFVCNSGYKIEGDEEMHCSDDGFWSKEKPKCVEISCKSPDVINGSPISQKIIYKENERFQYKCNMGYEYSERGDAVCTESGWRPLPSCEEKSCDNPYIPNGDYSPLRIKHRTGDEITYQCRNGFYPATRGNTAKCTSTGWIPAPRCTLKPCDYPDIKHGGLYHENMRRPYFPVAVGKYYSYYCDEHFETPSGSYWDHIHCTQDGWSPAVPCLRKCYFPYLENGYNQNYGRKFVQGKSIDVACHPGYALPKAQTTVTCMENGWSPTPRCIRVKTCSKSSIDIENGFISESQYTYALKEKAKYQCKLGYVTADGETSGSITCGKDGWSAQPTCIKSCDIPVFMNARTKNDFTWFKLNDTLDYECHDGYESNTGSTTGSIVCGYNGWSDLPICYERECELPKIDVHLVPDRKKDQYKVGEVLKFSCKPGFTIVGPNSVQCYHFGLSPDLPICKEQVQSCGPPPELLNGNVKEKTKEEYGHSEVVEYYCNPRFLMKGPNKIQCVDGEWTTLPVCIVEESTCGDIPELEHGWAQLSSPPYYYGDSVEFNCSESFTMIGHRSITCIHGVWTQLPQCVAIDKLKKCKSSNLIILEEHLKNKKEFDHNSNIRYRCRGKEGWIHTVCINGRWDPEVNCSMAQIQLCPPPPQIPNSHNMTTTLNYRDGEKVSVLCQENYLIQEGEEITCKDGRWQSIPLCVEKIPCSQPPQIEHGTINSSRSSQESYAHGTKLSYTCEGGFRISEENETTCYMGKWSSPPQCEGLPCKSPPEISHGVVAHMSDSYQYGEEVTYKCFEGFGIDGPAIAKCLGEKWSHPPSCIKTDCLSLPSFENAIPMGEKKDVYKAGEQVTYTCATYYKMDGASNVTCINSRWTGRPTCRDTSCVNPPTVQNAYIVSRQMSKYPSGERVRYQCRSPYEMFGDEEVMCLNGNWTEPPQCKDSTGKCGPPPPIDNGDITSFPLSVYAPASSVEYQCQNLYQLEGNKRITCRNGQWSEPPKCLHPCVISREIMENYNIALRWTAKQKLYSRTGESVEFVCKRGYRLSSRSHTLRTTCWDGKLEYPTCAKR

Kd [3]: 2.1 µM
B3: human membrane cofactor protein (MCP) (natural protein)
chain: CEEPPTFEAMELIGKPKPYYEIGERVDYKCKKGYFYIPPLATHTICDRNHTWLPVSDDACYRETCPYIRDPLNGQAVPANGTYEFGYQMHFICNEGYYLIGEEILYCELKGSVAIWSGKPPICEKVLCTPPPKIKNGKHTFSEVEVFEYLDAVTYSCDPAPGPDPFSLIGESTIYCGDNSVWSRAAPECKVVKCRFPVVENGKQISGFGKKFYYKATVMFECDKGFYLDGSDTIVCDSNSTWDPPVPKCLKVLPPSSTKPPALSHSVSTSSTTKSPASSASGPRPTYKPPVSNYPGYPKPEEGILDSLDVWVIAVIVIAIVVGVAVICVVPYRYLQRRKKKGTYLTDETHREVKFTSL
